Experiment in all cases: IEDB peptide-MHC binding, purified MHC/competitive/radioactivity; filed as Kd, often an IC50 or EC50 that approximates it; ≥ and ≤ were set here for values at or beyond the usual limits of such assays
The target of test [1] is HLA-A*31:01.
For test [2], the target named is HLA-A*68:01.
Test [3] concerns the target HLA-A*03:01.
Test [4] deals with HLA-A*33:01.
Test [5] concerns the target HLA-A*11:01.
The mark [6] stands for this setting: source organism: Lymphocytic choriomeningitis virus (strain Armstrong).
Where [7] appears, read: source organism: Vaccinia virus WR.
Where [8] appears, read: source organism: SARS coronavirus Tor2.
[9] abbreviates: source organism: Dengue virus 4 Philippines/H241/1956.
Where [10] appears, read: source organism: Dengue virus 3 Sri Lanka/1266/2000.
The mark [11] stands for this setting: source organism: Dengue virus 1 Brazil/97-11/1997.
Where [12] appears, read: source organism: Dengue virus 3 Martinique/1243/1999.
Where [13] appears, read: source organism: Mammarenavirus lassaense.

pKd: −log10 of the molar value. Some results are limits rather than exact numbers.

With NACSANNSHH, the pKd in test [1] (setting [6]) was no more than 4.15; in test [2] (setting [6]) it was 5.33; in test [3] (setting [6]) it was no more than 4.15; in test [4] (setting [6]), no more than 4.15; in test [5] (setting [6]), no more than 4.16.

Consider VSLVKKNKKR, for which the pKd in test [1] (setting [7]) is 6.49; in test [2] (setting [7]), no more than 4.32; in test [3] (setting [7]), no more than 4.52; in test [4] (setting [7]), 5.16; in test [5] (setting [7]), 5.19.

As for DTEDIVSDSK, the pKd is 4.80 in test [1] (setting [7]); 6.70 in test [2] (setting [7]); 5.12 in test [3] (setting [7]); 5.50 in test [4] (setting [7]); 5.78 in test [5] (setting [7]).

Take IVSLCPTKK: the pKd was 5.79 in test [1] (setting [7]); 6.04 in test [2] (setting [7]); 6.44 in test [3] (setting [7]); 5.11 in test [4] (setting [7]); 7.27 in test [5] (setting [7]).

In the case of DAKNDDWKKY, the pKd is no more than 4.15 in test [1] (setting [7]); no more than 4.15 in test [2] (setting [7]); no more than 4.15 in test [3] (setting [7]); no more than 4.15 in test [4] (setting [7]); no more than 4.16 in test [5] (setting [7]).

Take ALFMYYAKR: the pKd in test [1] (setting [7]) was 9.35; in test [2] (setting [7]), 6.03; in test [3] (setting [7]), 7.91; in test [4] (setting [7]), 7.49; in test [5] (setting [7]), 7.18.

As to SMQGAVDINR, the pKd in test [1] (setting [8]) was 6.73; in test [2] (setting [8]), 6.85; in test [3] (setting [8]), 5.64; in test [4] (setting [8]) it was 6.33; in test [5] (setting [8]) it was 5.94.

For the sequence FLAVFQSATK, the negative logarithm of the Kd (pKd) is 4.97 in test [1] (setting [8]); 8.06 in test [2] (setting [8]); 7.46 in test [3] (setting [8]); no more than 4.65 in test [4] (setting [8]); 5.79 in test [5] (setting [8]).

For DSALTLHWFR, the figures for the pKd in test [2] (setting [9]) and in test [4] (setting [9]) were 7.88 and 8.49, respectively.

For the sequence EITAEWLWR, the pKd was 6.94 in test [2] (setting [10]) and 7.94 in test [4] (setting [10]).

For the sequence ILKRWGTIK, the pKd in test [3] (source organism: Dengue virus 2 Jamaica/1409/1983) is 7.85.

With SSTCSAVTDR, the pKd was 6.91 in test [1] (setting [7]); 7.06 in test [2] (setting [7]); 4.94 in test [3] (setting [7]); 6.15 in test [4] (setting [7]); 6.76 in test [5] (setting [7]).

TIIGRRLQR: the pKd is 6.21 in test [2] (setting [9]) and 6.38 in test [4] (setting [9]).

For the sequence LVKSYSLIR, the negative-log Kd (pKd) was 7.74 in test [1] (setting [7]); 6.09 in test [2] (setting [7]); 4.81 in test [3] (setting [7]); 5.77 in test [4] (setting [7]); 5.83 in test [5] (setting [7]).

For KKNGAIKVLR, the pKd in test [1] (setting [11]) is no more than 4.15.

For EATQLATLR, the pKd is 7.80 in test [2] (setting [12]) and 7.02 in test [4] (setting [12]).

Take LFYTFAISY: the pKd in test [1] (setting [7]) was no more than 4.11; in test [2] (setting [7]) it was no more than 4.36; in test [3] (setting [7]), no more than 4.32; in test [4] (setting [7]), no more than 4.11; in test [5] (setting [7]), no more than 4.70.

With SFKLILAEY, the pKd in test [1] (setting [7]) was 6.17; in test [2] (setting [7]), no more than 4.59; in test [3] (setting [7]), no more than 4.11; in test [4] (setting [7]), 4.93; in test [5] (setting [7]) it was 4.87.

Consider KSIIIPFIAY, for which the pKd in test [1] (setting [7]) is 5.86; in test [2] (setting [7]), 4.75; in test [3] (setting [7]) it was 6.01; in test [4] (setting [7]), no more than 4.50; in test [5] (setting [7]), 6.60.

Consider AIKVLRGFKK, for which, in test [5] (setting [11]), the pKd was 6.09.

Regarding NSSAVVDNK, the pKd in test [1] (setting [7]) was no more than 4.51; in test [2] (setting [7]) it was 7.36; in test [3] (setting [7]) it was 5.08; in test [4] (setting [7]), no more than 4.11; in test [5] (setting [7]) it was 6.71.

On to GLLDSIKMIY, for which the pKd is 5.81 in test [1] (setting [7]); 6.09 in test [2] (setting [7]); 7.34 in test [3] (setting [7]); 5.54 in test [4] (setting [7]); 5.47 in test [5] (setting [7]).

As for TYLGPQFCK, the pKd is 5.29 in test [1] (setting [13]); 7.49 in test [2] (setting [13]); 6.81 in test [3] (setting [13]); 6.51 in test [4] (setting [13]); 7.88 in test [5] (setting [13]).

Take GTVMDIISRK: in test [5] (setting [12]), the pKd is 7.32.

In the case of IFNEDTSYY, the pKd in test [1] (setting [7]) is no more than 4.11; in test [2] (setting [7]) it was no more than 4.70; in test [3] (setting [7]), 5.22; in test [4] (setting [7]), no more than 4.11; in test [5] (setting [7]) it was 5.16.

For the sequence MQGAVDINR, the pKd was 6.39 in test [1] (setting [8]); 6.46 in test [2] (setting [8]); no more than 4.64 in test [3] (setting [8]); no more than 4.43 in test [4] (setting [8]); 6.20 in test [5] (setting [8]).

ILQLIRHGR: the pKd was 9.01 in test [1] (setting [7]); 7.12 in test [2] (setting [7]); 5.84 in test [3] (setting [7]); 8.58 in test [4] (setting [7]); 6.14 in test [5] (setting [7]).

The values above are taken from the Immune Epitope Database (IEDB).
